Data on two molecules can be found in article PMC2862490 (Proteomics, 2009).

Experiment [1] concerns the target CSK, His tagged (UniProt P41240). The experiment in a line: immobilised peptide pull-down, anti-CSK blot. To be noted: reference: unphosphorylated Y4507 peptide; sites Y4507.
In experiment [2] the target is Grb2 SH2 domain, 58-159 (UniProt P62993). Put plainly: immobilised peptide pull-down, anti-GST blot. To be noted: reference: unphosphorylated Y4507 peptide; sites Y4507.
In experiment [3] the target is PLCγ-1 C SH2 domain, 663-759 (UniProt P19174). Put plainly: immobilised peptide pull-down, anti-GST blot. To be noted: reference: unphosphorylated Y4507 peptide; sites Y4507.
Experiment [4] concerns the target PLCγ-1 N SH2 domain, 544-659 (UniProt P19174). The experiment in a line: immobilised peptide pull-down, anti-GST blot. To be noted: reference: unphosphorylated Y4507 peptide; sites Y4507.
The target of experiment [5] is Shp-2 (Shp2) SH2(C) domain (UniProt Q06124). Put plainly: immobilised peptide pull-down, anti-ubiquitin tag blot. To be noted: reference: unphosphorylated Y4507 peptide; sites Y4507.
The target of experiment [6] is Shp-2 (Shp2) SH2(N) domain (UniProt Q06124). The experiment is described as above. The note with it: reference: unphosphorylated Y4507 peptide; sites Y4507.
In experiment [7] the target is GST tagged SH2 domain of Grb2 (58–159) (human, UniProt P62993 58-159). The experiment in a line: pull-down.
Experiment [8] deals with T1, GST tagged N SH2 domain of PLCγ-1 (544–659) (human, UniProt P19174 544-659).
T1 sequence (looked up): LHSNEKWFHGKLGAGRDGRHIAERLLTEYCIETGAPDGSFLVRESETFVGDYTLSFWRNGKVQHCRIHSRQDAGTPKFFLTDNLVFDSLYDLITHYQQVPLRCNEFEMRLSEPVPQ
Put plainly: pull-down.

Experiment [9] addresses T2, GST tagged C SH2 domain of PLCγ-1 (663–759) (human, UniProt P19174 663-759).
T2 sequence (looked up): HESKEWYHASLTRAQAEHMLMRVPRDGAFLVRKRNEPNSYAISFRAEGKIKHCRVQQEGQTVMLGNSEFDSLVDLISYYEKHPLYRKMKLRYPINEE
Put plainly: pull-down.

Square brackets hold non-standard residues; d marks the D form. Ends that are not written are not given here. pY = N[C@@H](Cc1ccc(OP(=O)(O)O)cc1)C(=O)O; Ahx = NCCCCCC(=O)O

As to “LDL receptor-related protein 1 (LRP1) NPXY4507 microdomain (from UniProt Q07954) pY4507 peptide”, the “binding against the reference” value in experiment [1], in [2], in experiment [3], in experiment [4], in experiment [5] and in [6] was “stronger” each time.

Regarding C[Ahx]TNFTNPV[pY]ATLY [NPXpY_(4507) microdomain of LRP1-CT, tyrosine-phosphorylated], the binding result in [7], in [8] and in experiment [9] was “binds” throughout.
